Results as given in the supplement of paper PMC11316812.
± gives the standard deviation of the averaged measurements.

Tests used:
hTERT-HMEC = test: percentage of EdU-negative (G0-arrested) nuclei per well, 72 h; higher = more G0 arrest; conditions: reference: sequence is the full UniProt precursor, the tested protein was the secreted form or ectodomain
MCF7 = test: as above; conditions: reference: sequence is the full UniProt precursor, the tested protein was the secreted form or ectodomain
[1] = protein concentration 0.0225 µM
[2] = protein concentration 0.02535 µM
[3] = protein concentration 0.2535 µM
[4] = protein concentration 0.0357143 µM
[5] = protein concentration 0.357143 µM
[6] = protein concentration 0.0257143 µM
[7] = protein concentration 0.257143 µM
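Note: secreted proteins added to cultured cells, EdU pulse at the end, nuclei found by Hoechst imaging, EdU status from nuclear versus surrounding ring intensity ratio, PBS as neutral control.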

Sequence	percentage of EdU-negative (hTERT-HMEC; [1]) [%]	percentage of EdU-negative (hTERT-HMEC; protein concentration 0.225 µM) [%]	percentage of EdU-negative (MCF7; [1]) [%]	percentage of EdU-negative (MCF7; protein concentration 0.225 µM) [%]	also measured
MDRGTLPLAVALLLASCSLSPTSLAETVHCDLQPVGPERGEVTYTTSQVSKGCVAQAPNAILEVHVLFLEFPTGPSQLELTLQASKQNGTWPREVLLVLSVNSSVFLHLQALGIPLHLAYNSSLVTFQEPPGVNTTELPSFPKTQILEWAAERGPITSAAELNDPQSILLRLGQAQGSLSFCMLEASQDMGRTLEWRPRTPALVRGCHLEGVAGHKEAHILRVLPGHSAGPRTVTVKVELSCAPGDLDAVLILQGPPYVSWLIDANHNMQIWTTGEYSFKIFPEKNIRGFKLPDTPQGLLGEARMLNASIVASFVELPLASIVSLHASSCGGRLQTSPAPIQTTPPKDTCSPELLMSLIQTKCADDAMTLVLKKELVAHLKCTITGLTFWDPSCEAEDRGDKFVLRSAYSSCGMQVSASMISNEAVVNILSSSSPQRKKVHCLNMDSLSFQLGLYLSPHFLQASNTIEPGQQSFVQVRVSPSVSEFLLQLDSCHLDLGPEGGTVELIQGRAAKGNCVSLLSPSPEGDPRFSFLLHFYTVPIPKTGTLSCTVALRPKTGSQDQEVHRTVFMRLNIISPDLSGCTSKGLVLPAVLGITFGAFLIGALLTAALWYIYSHTRSPSKREPVVAVAAPASSESSSTNHSIGSTQSTPCSTSSMA	4.75 ± 0.063	5.33 ± 0.45	25.3 ± 2.4	27.3 ± 2.9	–
MSSAARSRLTRATRQEMLFLALLLLPVVVAFARAEAEEDGDLQCLCVKTTSQVRPRHITSLEVIKAGPHCPTAQLIATLKNGRKICLDLQALLYKKIIKEHLES	5.03 ± 0.052	5.8 ± 0.41	25.1 ± 0.73	24.9 ± 0.32	–
MGFWILAILTILMYSTAAKFSKQSWGLENEALIVRCPRQGKPSYTVDWYYSQTNKSIPTQERNRVFASGQLLKFLPAAVADSGIYTCIVRSPTFNRTGYANVTIYKKQSDCNVPDYLMYSTVSGSEKNSKIYCPTIDLYNWTAPLEWFKNCQALQGSRYRAHKSFLVIDNVMTEDAGDYTCKFIHNENGANYSVTATRSFTVKDEQGFSLFPVIGAPAQNEIKEVEIGKNANLTCSACFGKGTQFLAAVLWQLNGTKITDFGEPRIQQEEGQNQSFSNGLACLDMVLRIADVKEEDLLLQYDCLALNLHGLRRHTVRLSRKNPIDHHSIYCIIAVCSVFLMLINVLVIILKMFWIEATLLWRDIAKPYKTRNDGKLYDAYVVYPRNYKSSTDGASRVEHFVHQILPDVLENKCGYTLCIYGRDMLPGEDVVTAVETNIRKSRRHIFILTPQITHNKEFAYEQEVALHCALIQNDAKVILIEMEALSELDMLQAEALQDSLQHLMKVQGTIKWREDHIANKRSLNSKFWKHVRYQMPVPSKIPRKASSLTPLAAQKQ	–	–	–	–	percentage of EdU-negative (hTERT-HMEC; [2]): 5.463 ± 0.046%; percentage of EdU-negative (hTERT-HMEC; [3]): 5.2 ± 0.66%; percentage of EdU-negative (MCF7; [2]): 23.7 ± 0.79%; percentage of EdU-negative (MCF7; [3]): 25.9 ± 0.45%
MTPPERLFLPRVCGTTLHLLLLGLLLVLLPGAQGLPGVGLTPSAAQTARQHPKMHLAHSTLKPAAHLIGDPSKQNSLLWRANTDRAFLQDGFSLSNNSLLVPTSGIYFVYSQVVFSGKAYSPKATSSPLYLAHEVQLFSSQYPFHVPLLSSQKMVYPGLQEPWLHSMYHGAAFQLTQGDQLSTHTDGIPHLVLSPSTVFFGAFAL	–	–	–	–	percentage of EdU-negative (hTERT-HMEC; [4]): 6.4 ± 0.43%; percentage of EdU-negative (hTERT-HMEC; [5]): 6.94 ± 0.51%; percentage of EdU-negative (MCF7; [4]): 35.3 ± 2.4%; percentage of EdU-negative (MCF7; [5]): 42.8 ± 0.91%
MPGGCSRGPAAGDGRLRLARLALVLLGWVSSSSPTSSASSFSSSAPFLASAVSAQPPLPDQCPALCECSEAARTVKCVNRNLTEVPTDLPAYVRNLFLTGNQLAVLPAGAFARRPPLAELAALNLSGSRLDEVRAGAFEHLPSLRQLDLSHNPLADLSPFAFSGSNASVSAPSPLVELILNHIVPPEDERQNRSFEGMVVAALLAGRALQGLRRLELASNHFLYLPRDVLAQLPSLRHLDLSNNSLVSLTYVSFRNLTHLESLHLEDNALKVLHNGTLAELQGLPHIRVFLDNNPWVCDCHMADMVTWLKETEVVQGKDRLTCAYPEKMRNRVLLELNSADLDCDPILPPSLQTSYVFLGIVLALIGAIFLLVLYLNRKGIKKWMHNIRDACRDHMEGYHYRYEINADPRLTNLSSNSDV	4.65 ± 0.22	6.38 ± 0.11	25.8 ± 1.4	27.9 ± 0.44	–
MKKSGVLFLLGIILLVLIGVQGTPVVRKGRCSCISTNQGTIHLQSLKDLKQFAPSPSCEKIEIIATLKNGVQTCLNPDSADVKELIKKWEKQVSQKKKQKNGKKHQKKKVLKVRKSQRSRQKKTT	–	–	–	–	percentage of EdU-negative (hTERT-HMEC; [6]): 4.62 ± 0.47%; percentage of EdU-negative (hTERT-HMEC; [7]): 6.18 ± 1.4%; percentage of EdU-negative (MCF7; [6]): 24.8 ± 0.99%; percentage of EdU-negative (MCF7; [7]): 27.7 ± 2.3%
MLPAAMKGLGLALLAVLLCSAPAHGLWCQDCTLTTNSSHCTPKQCQPSDTVCASVRITDPSSSRKDHSVNKMCASSCDFVKRHFFSDYLMGFINSGILKVDVDCCEKDLCNGAAGAGHSPWALAGGLLLSLGPALLWAGP	4.57 ± 0.15	5.48 ± 0.5	25.6 ± 3.3	26.7 ± 1.4	–
